Experimental findings from patent US20150361183A1 (IMPERIAL INNOVATIONS, published 2015) are described below.

Sequences and labels used below:
B5: CFHR1 (complement factor H-related protein 1), purified from serum (other)
chain: EATFCDFPKINHGILYDEEKYKPFSQVPTGEVFYYSCEYNFVSPSKSFWTRITCTEEGWSPTPKCLRLCFFPFVENGHSESSGQTHLEGDTVQIICNTGYRLQNNENNISCVERGWSTPPKCRSTDTSCVNPPTVQNAHILSRQMSKYPSGERVRYECRSPYEMFGDEEVMCLNGNWTEPPQCKDSTGKCGPPPPIDNGDITSFPLSVYAPASSVEYQCQNLYQLEGNKRITCRNGQWSEPPKCLHPCVISREIMENYNIALRWTAKQKLYLRTGESAEFVCKRGYRLSSRSHTLRTTCWDGKLEYPTCAKR

One data set addresses T1, iC3b (UniProt P01024 23-667; P01024 749-1303; P01024 1321-1663).
T1 construct: also called thioester-coupled iC3b
The data set is described as follows: SPR steady state, iC3b on chip; reference CFHR5.

Data set [1] concerns the target T2, C3b (UniProt P01024 749-1663; P01024 23-667). The data set can be described thus: cell-based or functional assay.
The target of data set [2] is B5. The data set can be described thus: serum immunoprecipitation with anti-CFHR2, western blot with MBC125. An excerpt: Serum was immunoprecipitated using a specific anti-CFHR2 antibody (MBC22) and western blot analysis of the immunoprecipitated material with anti-CFHR1/2/5 antibody (MBC125) performed. […] Lane 2 and 4 represent control sera in which no anti-CFHR2 antibody was used. The detection of CFHR2-CFHR5 heterodimers was not possible due to non-specific bands in the CFHR5 region. […] Serum was immunoprecipitated using an anti-CFHR5 antibody and western blot analysis of the immunoprecipitated material with anti-CFHR1/2/5 antibody performed. […] Lane 2 and 4 represent control sera in which no anti-CFHR5 antibody was used. The detection of CFHR2-CFHR5 heterodimers was not possible due to non-specific bands in the CFHR2 region. FIG. 2(d) ELISA assay to detect CFHR2-CFHR5 heterodimers in vivo. Using an anti-CFHR5 capture antibody and an anti-CFHR2 detection antibody, positive signal was demonstrable in two individuals homozygous for the ΔCFHR3-1 deletion polymorphism. A much weaker signal was detectable in individuals without this deletion.
Detection of heterodimers CFHR1-CFHR2 and CFHR1-CFHR5 were identified by immunoprecipitation. […]

The target of data set [3] is T2, C3b. The data set is described as follows: SPR steady state, thioester-coupled (clustered) C3b against amine-coupled C3b. Here is the method: FIG. 9(a) Binding of CFHR5 and CFH to low levels of C3b coupled through amine groups (no clustering of C3b). CFH (from 4 μM) or CFHR5 (from 6.6 μM) were flowed across immobilized C3b (400 RU) at different concentrations. Affinity was calculated by steady state analysis. Analysis assumes a 1:1 binding interaction and for CFHR5 calculations used molarity of binding sites. FIG. 9(b) Binding to C3b coupled through the thiolester. C3b (150RU) was amine-coupled to a CM5 Biacore chip and used as a nidus for convertase formation. Further C3b was deposited on the chip surface by flowing fB and fD to form C3bBb followed by C3 as convertase substrate. […] CFH (from 4 μM) and CFHR5 (from 1.35 μM) were flowed across the surface and binding was analysed at steady state. Binding of CFH was very heterogeneous, likely due to crosslinking between multiple C3b-binding sites on fH and clusters of deposited C3b molecules. Affinity could not be calculated under these conditions. […] Data were calculated using the following values: CFH, mass 155 kDa, extinction coefficient 1.95 cm-1 (mg/mL)-1; CFHR5, mass 65 kDa, extinction coefficient 1.55 cm-1 (mg/mL)-1;
All data in FIGS. 9-11 were gathered using a Biacore T100 (GE Healthcare). […] For kinetic studies, samples were injected using the KINJECT command, in HBS/P (10 mM HEPES pH7.4, 150 mM NaCl, 0.05% surfactant-P20) flowed at 30 μl/min and analysed at 25° C. […]

Data set [4] concerns the molecule itself. The data set can be described thus: size exclusion chromatography. An excerpt:
FIG. 3(a) Generation of a CFHR5 protein lacking critical amino acids within the dimerisation motif. Monomeric CFHR5 (CFHR5^{dimer mutant}) was generated by mutating the three stabilizing amino acids (Tyr34Ser, Ser36 Tyr, Tyr39Glu) within the dimerisation motif to the corresponding amino acids within CFH. FIG. 3(b) Analysis of recombinant CFHR5 and CFHR5^{dimer mutant} using SDS PAGE gel electrophoresis. Both the wild type and dimer mutants were purified to single homogenous species as visualized by denaturing electrophoresis. FIG. 3(c) Analysis of recombinant CFHR5 and CFHR5^{dimer mutant} using size exclusion chromatography. Size exclusion chromatography was performed on a Superdex200 10/30 column (GE Healthcare) equilibrated in 50 mM Tris.HCl, pH 7.5, 150 mM NaCl at 0.4 ml/min. The column was followed in-line by an Optilab-Rex refractive index monitor (Wyatt Technologies). The CFHR5 dimer elutes early from the column (blue trace) whilst the monomeric CFHR5^{dimer mutant} protein elutes at a larger column volume (red trace). FIG. 3(d) Interaction of CFHR5 and CFHR5^{dimer mutant} with renal-bound mouse C3 in vivo.

T2 sequence (P01024 749-1663 limits assumed, chain 1 of 2): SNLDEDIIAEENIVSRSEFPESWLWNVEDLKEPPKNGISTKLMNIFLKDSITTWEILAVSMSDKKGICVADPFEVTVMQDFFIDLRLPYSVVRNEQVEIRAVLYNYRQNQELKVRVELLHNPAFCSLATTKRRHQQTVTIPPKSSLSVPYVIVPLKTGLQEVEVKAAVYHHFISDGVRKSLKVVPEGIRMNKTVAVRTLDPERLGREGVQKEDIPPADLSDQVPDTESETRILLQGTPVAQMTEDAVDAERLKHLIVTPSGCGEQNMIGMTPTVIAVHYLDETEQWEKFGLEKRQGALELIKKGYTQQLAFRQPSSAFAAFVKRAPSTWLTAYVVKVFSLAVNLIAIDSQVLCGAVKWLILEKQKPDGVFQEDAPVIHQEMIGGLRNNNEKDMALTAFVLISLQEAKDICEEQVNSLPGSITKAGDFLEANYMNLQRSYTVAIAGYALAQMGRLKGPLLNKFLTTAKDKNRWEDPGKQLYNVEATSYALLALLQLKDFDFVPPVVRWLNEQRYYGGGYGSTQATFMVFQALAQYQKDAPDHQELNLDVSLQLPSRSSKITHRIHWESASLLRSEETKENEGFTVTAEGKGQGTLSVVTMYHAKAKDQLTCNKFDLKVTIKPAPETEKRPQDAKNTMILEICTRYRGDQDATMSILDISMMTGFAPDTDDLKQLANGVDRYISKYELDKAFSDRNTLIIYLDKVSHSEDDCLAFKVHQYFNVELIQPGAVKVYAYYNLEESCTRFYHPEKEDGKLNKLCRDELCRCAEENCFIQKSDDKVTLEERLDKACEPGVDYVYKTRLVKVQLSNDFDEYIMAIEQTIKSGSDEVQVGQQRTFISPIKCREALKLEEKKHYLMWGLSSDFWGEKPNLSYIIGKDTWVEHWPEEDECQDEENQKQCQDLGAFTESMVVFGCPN
T2 sequence (P01024 23-667 limits assumed, chain 2 of 2): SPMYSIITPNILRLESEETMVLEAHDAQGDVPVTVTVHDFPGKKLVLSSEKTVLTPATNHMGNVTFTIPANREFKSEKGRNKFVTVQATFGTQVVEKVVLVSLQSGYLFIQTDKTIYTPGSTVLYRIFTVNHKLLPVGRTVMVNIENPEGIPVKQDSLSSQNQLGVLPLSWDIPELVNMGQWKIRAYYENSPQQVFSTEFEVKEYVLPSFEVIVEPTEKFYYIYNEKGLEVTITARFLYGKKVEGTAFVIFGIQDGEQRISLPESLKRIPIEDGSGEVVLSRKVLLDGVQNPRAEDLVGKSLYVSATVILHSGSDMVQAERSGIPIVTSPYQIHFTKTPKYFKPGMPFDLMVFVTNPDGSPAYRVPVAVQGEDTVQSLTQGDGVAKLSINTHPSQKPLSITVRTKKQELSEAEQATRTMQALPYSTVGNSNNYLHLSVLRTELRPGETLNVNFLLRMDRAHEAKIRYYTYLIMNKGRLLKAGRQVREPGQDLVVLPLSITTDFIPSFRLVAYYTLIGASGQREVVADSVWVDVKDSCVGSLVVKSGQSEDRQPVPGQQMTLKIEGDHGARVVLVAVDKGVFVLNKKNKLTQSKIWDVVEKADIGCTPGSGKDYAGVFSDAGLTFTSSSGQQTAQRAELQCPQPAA
T1 sequence (P01024 23-667, chain 1 of 3): as the sequence (P01024 23-667 limits assumed, chain 2 of 2) above
T1 sequence (P01024 749-1303, chain 2 of 3): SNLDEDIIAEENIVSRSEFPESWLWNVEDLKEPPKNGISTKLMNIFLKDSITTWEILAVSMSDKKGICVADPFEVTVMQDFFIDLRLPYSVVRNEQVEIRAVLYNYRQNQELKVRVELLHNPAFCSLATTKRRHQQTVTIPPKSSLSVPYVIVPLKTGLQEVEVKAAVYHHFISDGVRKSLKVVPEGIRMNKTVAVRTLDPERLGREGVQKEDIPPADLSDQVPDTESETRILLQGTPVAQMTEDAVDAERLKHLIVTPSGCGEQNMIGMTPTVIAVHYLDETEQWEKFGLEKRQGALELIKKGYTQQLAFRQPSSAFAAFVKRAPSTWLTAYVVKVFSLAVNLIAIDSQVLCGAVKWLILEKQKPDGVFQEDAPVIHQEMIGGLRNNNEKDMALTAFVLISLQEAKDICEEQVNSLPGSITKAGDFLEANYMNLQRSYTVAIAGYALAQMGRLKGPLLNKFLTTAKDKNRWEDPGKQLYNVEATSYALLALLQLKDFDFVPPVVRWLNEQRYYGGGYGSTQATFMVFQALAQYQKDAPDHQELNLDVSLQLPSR
T1 sequence (P01024 1321-1663, chain 3 of 3): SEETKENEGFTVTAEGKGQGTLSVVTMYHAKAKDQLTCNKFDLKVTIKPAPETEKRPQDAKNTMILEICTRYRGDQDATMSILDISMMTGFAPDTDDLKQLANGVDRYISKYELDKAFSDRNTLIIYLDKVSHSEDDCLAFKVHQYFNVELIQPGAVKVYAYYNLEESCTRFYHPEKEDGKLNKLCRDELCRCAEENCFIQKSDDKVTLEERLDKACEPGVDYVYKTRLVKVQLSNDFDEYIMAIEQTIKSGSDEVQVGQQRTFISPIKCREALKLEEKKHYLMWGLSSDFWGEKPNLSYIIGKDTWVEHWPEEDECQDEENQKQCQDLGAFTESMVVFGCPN

B1: Complement factor H (CFH) (other, UniProt P08603 19-1231, looked up)
chain: EDCNELPPRRNTEILTGSWSDQTYPEGTQAIYKCRPGYRSLGNVIMVCRKGEWVALNPLRKCQKRPCGHPGDTPFGTFTLTGGNVFEYGVKAVYTCNEGYQLLGEINYRECDTDGWTNDIPICEVVKCLPVTAPENGKIVSSAMEPDREYHFGQAVRFVCNSGYKIEGDEEMHCSDDGFWSKEKPKCVEISCKSPDVINGSPISQKIIYKENERFQYKCNMGYEYSERGDAVCTESGWRPLPSCEEKSCDNPYIPNGDYSPLRIKHRTGDEITYQCRNGFYPATRGNTAKCTSTGWIPAPRCTLKPCDYPDIKHGGLYHENMRRPYFPVAVGKYYSYYCDEHFETPSGSYWDHIHCTQDGWSPAVPCLRKCYFPYLENGYNQNYGRKFVQGKSIDVACHPGYALPKAQTTVTCMENGWSPTPRCIRVKTCSKSSIDIENGFISESQYTYALKEKAKYQCKLGYVTADGETSGSITCGKDGWSAQPTCIKSCDIPVFMNARTKNDFTWFKLNDTLDYECHDGYESNTGSTTGSIVCGYNGWSDLPICYERECELPKIDVHLVPDRKKDQYKVGEVLKFSCKPGFTIVGPNSVQCYHFGLSPDLPICKEQVQSCGPPPELLNGNVKEKTKEEYGHSEVVEYYCNPRFLMKGPNKIQCVDGEWTTLPVCIVEESTCGDIPELEHGWAQLSSPPYYYGDSVEFNCSESFTMIGHRSITCIHGVWTQLPQCVAIDKLKKCKSSNLIILEEHLKNKKEFDHNSNIRYRCRGKEGWIHTVCINGRWDPEVNCSMAQIQLCPPPPQIPNSHNMTTTLNYRDGEKVSVLCQENYLIQEGEEITCKDGRWQSIPLCVEKIPCSQPPQIEHGTINSSRSSQESYAHGTKLSYTCEGGFRISEENETTCYMGKWSSPPQCEGLPCKSPPEISHGVVAHMSDSYQYGEEVTYKCFEGFGIDGPAIAKCLGEKWSHPPSCIKTDCLSLPSFENAIPMGEKKDVYKAGEQVTYTCATYYKMDGASNVTCINSRWTGRPTCRDTSCVNPPTVQNAYIVSRQMSKYPSGERVRYQCRSPYEMFGDEEVMCLNGNWTEPPQCKDSTGKCGPPPPIDNGDITSFPLSVYAPASSVEYQCQNLYQLEGNKRITCRNGQWSEPPKCLHPCVISREIMENYNIALRWTAKQKLYSRTGESVEFVCKRGYRLSSRSHTLRTTCWDGKLEYPTCAKR
For the molecule B1, the “fold weaker binding than CFHR5” value with iC3b came to 10 fold.

B2: CFHR234 (recombinant CFHR2 domains 3-4) (other)
chain: EKCGPPPPIDNGDITSFLLSVYAPGSSVEYQCQNLYQLEGNNQITCRNGQWSEPPKCLDPCVISQEIMEKYNIKLKWTNQQKLYSRTGDIVEFVCKSGYHPTKSHSFRAMCQNGKLVYPSCEEK
Regarding B2, the “IC50, dose-dependent increase of lysis in the CFH-dependent alternative pathway haemolytic assay (guinea-pig erythrocytes, 20% normal human serum plus CFH)” value with C3b [1] came out at 4.7 µM.

B3: CFHR2 (complement factor H-related protein 2), native in serum (other)
chain: EAMFCDFPKINHGILYDEEKYKPFSQVPTGEVFYYSCEYNFVSPSKSFWTRITCAEEGWSPTPKCLRLCFFPFVENGHSESSGQTHLEGDTVQIICNTGYRLQNNENNISCVERGWSTPPKCRSTISAEKCGPPPPIDNGDITSFLLSVYAPGSSVEYQCQNLYQLEGNNQITCRNGQWSEPPKCLDPCVISQEIMEKYNIKLKWTNQQKLYSRTGDIVEFVCKSGYHPTKSHSFRAMCQNGKLVYPSCEEK
notes: Native serum protein
Take B3: the binding result in data set [2] was “binds”.

B4: CFHR5 (complement factor H-related protein 5), wild type (other)
chain: EGTLCDFPKIHHGFLYDEEDYNPFSQVPTGEVFYYSCEYNFVSPSKSFWTRITCTEEGWSPTPKCLRMCSFPFVKNGHSESSGLIHLEGDTVQIICNTGYSLQNNEKNISCVERGWSTPPICSFTKGECHVPILEANVDAQPKKESYKVGDVLKFSCRKNLIRVGSDSVQCYQFGWSPNFPTCKGQVRSCGPPPQLSNGEVKEIRKEEYGHNEVVEYDCNPNFIINGPKKIQCVDGEWTTLPTCVEQVKTCGYIPELEYGYVQPSVPPYQHGVSVEVNCRNEYAMIGNNMITCINGIWTELPMCVATHQLKRCKIAGVNIKTLLKLSGKEFNHNSRIRYRCSDIFRYRHSVCINGKWNPEVDCTEKREQFCPPPPQIPNAQNMTTTVNYQDGEKVAVLCKENYLLPEAKEIVCKDGRWQSLPRCVESTAYCGPPPSINNGDTTSFPLSVYPPGSTVTYRCQSFYKLQGSVTVTCRNKQWSEPPRCLDPCVVSEENMNKNNIQLKWRNDGKLYAKTGDAVEFQCKFPHKAMISSPPFRAICQEGKFEYPICE
notes: Recombinant full-length protein from HEK293 cells, a dimer by size exclusion; The same id is used for native serum CFHR5 in the heterodimer experiments; also called recombinant CFHR5; wild-type CFHR5
Take B4: the “fold tighter binding to thioester-coupled C3b than to amine-coupled C3b” value in the data set with C3b [3] was 10 fold. The binding result in data set [4] is given as “binds”. Besides, the “IC50, dose-dependent increase of lysis in the CFH-dependent alternative pathway haemolytic assay (guinea-pig erythrocytes, 20% normal human serum plus CFH)” value with C3b [1] stood at 0.15 µM.

As to B5, the “IC50, dose-dependent increase of lysis in the CFH-dependent alternative pathway haemolytic assay (guinea-pig erythrocytes, 20% normal human serum plus CFH)” value in the data set with C3b [1] was determined as 0.7 µM.

B6: CFHR1345 (recombinant CFHR1 domains 3-5) (other)
chain: TSCVNPPTVQNAHILSRQMSKYPSGERVRYECRSPYEMFGDEEVMCLNGNWTEPPQCKDSTGKCGPPPPIDNGDITSFPLSVYAPASSVEYQCQNLYQLEGNKRITCRNGQWSEPPKCLHPCVISREIMENYNIALRWTAKQKLYLRTGESAEFVCKRGYRLSSRSHTLRTTCWDGKLEYPTCAKR
As to B6, the “IC50, dose-dependent increase of lysis in the CFH-dependent alternative pathway haemolytic assay (guinea-pig erythrocytes, 20% normal human serum plus CFH)” value with C3b [1] came out at 3.6 µM.
